Measured values published in paper PMC9787417 (Pathogens, 2022).

B1: human 14-3-3β, individually expressed, with affinity tag (natural protein)
chain: MTMDKSELVQKAKLAEQAERYDDMAAAMKAVTEQGHELSNEERNLLSVAYKNVVGARRSSWRVISSIEQKTERNEKKQQMGKEYREKIEAELQDICNDVLELLDKYLIPNATQPESKVFYLKMKGDYFRYLSEVASGDNKQTTVSNSQQAYQEAFEISKKEMQPTHPIRLGLALNFSVFYYEILNSPEKACSLAKTAFDEAIAELDTLNEESYKDSTLIMQLLRDNLTLWTSENQGDEG
notes: also called purified 14-3-3β
B2: human 14-3-3β, un-tagged, co-expressed with the exotoxin ART domains (natural protein)
chain: MTMDKSELVQKAKLAEQAERYDDMAAAMKAVTEQGHELSNEERNLLSVAYKNVVGARRSSWRVISSIEQKTERNEKKQQMGKEYREKIEAELQDICNDVLELLDKYLIPNATQPESKVFYLKMKGDYFRYLSEVASGDNKQTTVSNSQQAYQEAFEISKKEMQPTHPIRLGLALNFSVFYYEILNSPEKACSLAKTAFDEAIAELDTLNEESYKDSTLIMQLLRDNLTLWTSENQGDEG

Tests used:
14-3-3β (Homo sapiens) = 14-3-3β (Homo sapiens) (UniProt P31946); details: cited from earlier work
mass photometry = biological target: the molecule itself; assay: mass photometry

Sequence of 14-3-3β (Homo sapiens) (P31946 2-246): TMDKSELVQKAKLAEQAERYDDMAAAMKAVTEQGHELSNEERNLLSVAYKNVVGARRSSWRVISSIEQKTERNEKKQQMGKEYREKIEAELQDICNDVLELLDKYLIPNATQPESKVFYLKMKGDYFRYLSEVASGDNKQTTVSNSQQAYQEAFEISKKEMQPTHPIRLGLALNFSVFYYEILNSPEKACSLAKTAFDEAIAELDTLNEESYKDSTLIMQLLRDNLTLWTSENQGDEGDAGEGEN

Molecule	Kd (14-3-3β (Homo sapiens)) [nM]	stoichiometry N (mass photometry)
ExoS ART domain (from UniProt G3XDA1)	40	
B1		2
B2		2
